US20200390902A1, “Antibody-Drug Conjugates Targeted at Human Aspartyl-(Asparaginyl)-B-Hydroxylase (HAAH)” (Panacea Pharmaceuticals, Inc., priority 2017, published 2020)

Columns and labels:
H460 lysate = biological target: T1, H460 lysate (Homo sapiens, UniProt Q12797); assay: Binding of naked antibodies and ADCs to H460 lysate
T1 construct: A 96-well plate was coated with H460 lysate and dried at room temperature overnight; endogenous in cells; host or cells: H460 lysate (sonicated, supernatant)
T1 sequence (Q12797 1-758): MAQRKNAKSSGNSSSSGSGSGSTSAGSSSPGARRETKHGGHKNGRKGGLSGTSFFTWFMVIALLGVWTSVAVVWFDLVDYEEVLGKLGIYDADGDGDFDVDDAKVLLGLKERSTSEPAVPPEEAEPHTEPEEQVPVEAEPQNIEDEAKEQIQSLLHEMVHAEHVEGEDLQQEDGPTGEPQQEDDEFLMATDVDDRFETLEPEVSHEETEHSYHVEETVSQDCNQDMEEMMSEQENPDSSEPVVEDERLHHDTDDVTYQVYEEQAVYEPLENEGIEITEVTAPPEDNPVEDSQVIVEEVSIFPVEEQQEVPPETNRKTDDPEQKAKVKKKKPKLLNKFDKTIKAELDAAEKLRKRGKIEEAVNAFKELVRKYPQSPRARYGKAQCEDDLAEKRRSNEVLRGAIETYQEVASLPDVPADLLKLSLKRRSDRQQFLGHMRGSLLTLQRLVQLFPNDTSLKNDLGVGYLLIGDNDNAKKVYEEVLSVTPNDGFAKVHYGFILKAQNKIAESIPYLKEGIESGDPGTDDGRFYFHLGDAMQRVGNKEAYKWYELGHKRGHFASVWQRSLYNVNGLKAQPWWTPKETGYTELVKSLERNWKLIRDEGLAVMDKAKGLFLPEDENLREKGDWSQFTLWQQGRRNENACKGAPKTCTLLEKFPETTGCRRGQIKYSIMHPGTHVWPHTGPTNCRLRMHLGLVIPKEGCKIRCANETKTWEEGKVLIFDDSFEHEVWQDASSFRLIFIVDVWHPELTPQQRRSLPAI
Method: H460 cells were harvested, the cell density was adjusted to 2×10^6 cells/ml with PBS, and the resuspended cells sonicated on ice twice in 30 second pulses. After centrifugation at 300×g for 5 minutes the supernatant was collected and the protein concentration measured using a NANODROP spectrophotometer (ThermoFisher Scientific). A 96-well plate was coated with H460 lysate and dried at room temperature overnight. Following a 1-hour blockage with 1% non-fat dry milk in phosphate buffered saline (PBS), the plates were incubated for 45 minutes at 37° C. with each either 0.5 μg/ml IgG1λ (non-specific monoclonal antibody), IgG1λ-MC-DM1 (non-specific ADC), or SNS622-MC-DM1, or with 5 μg/ml SNS622. Following five PBS rinses to remove un-bound antibody. 1:100 goat anti-human IgG (8)-HRP was added and the plates incubated for 30 minutes at 37° C. Following five PBS rinses TMB substrate was added and, after incubation of the plates for 15 minutes at room temperature. Stop solution was added to terminate the reactions. The plates were read at 450 nm using a 96-well plate reader (ELx808, BioTek).

[1] = system: normal human lung fibroblasts (NHLF); assay: Lactate dehydrogenase (LDH) release assay, NHLF; assay type: cell-based; settings: 32 nM, 72 hours
Method: (§1) Both cell lines were cultured in HG-DMEM (ThermoFisher Scientific Catalog No. 11965-092) supplemented with 20 mM HEPES (4-(2-hydroxyethyl)-1-piperazineethanesulfonic acid), 4 mM L-glutamine, 1 mM sodium pyruvate, 1× non-essential amino acids, 50 μg/ml gentamicin and 10% fetal bovine serum (FBS). H460 and NHLF cells were seeded into 96-well plates at 5,000 cells per well, following a 2-day FBS deprivation, and released by culture in complete culture medium containing 10% FBS. […] By 72 hours post treatment, cell death was determined by observing cell morphology using a phase contrast microscope at 150×.
The cell death was also quantified using lactate dehydrogenase (LDH) releasing assay. For the LDH assay, a mixture of a 35 μl aliquot of culture medium and 17.5 μl of substrate, enzyme, and dye solutions (Sigma, St. Louis, Mo., U.S.A.) was incubated at room temperature for 30 minutes, and absorbance was measured at 490 nm using a plate reader (ELx805; BioTek, Winooski, Vt., U.S.A.).

[2] = system: metastatic nodules in the lungs (PDAC PDx); assay: PDx model of PDAC, lung metastasis; assay type: in vivo, mouse; settings: 1.9 mg/kg, after 6 weeks of administration
Text: Pancreatic ductular adenocarcinoma (PDAC) is a highly lethal malignancy with limited treatment options. HAAH is a cell surface protein that is highly expressed in […] of PDACs. The specificity of SNS622-MC-DM1 was next examined in the patient-derived xenograft (PDx) mouse model PDAC. The patient-derived xenograft (PDx) murine model was established by using surgically resected PDAC (from Rhode Island Hospital, Providence, R.I., U.S.A.). Five to six-week-old female Nod Scid Gamma (NSG) mice were employed. […] Body weight and tumor size were measured twice a week and tumor volume was calculated using the modified ellipsoid formula (0.5×length×width^2). To determine the effect of SNS622-MC-DM1 on lung metastasis, all lung tissues were immersed in Bouin's fixative solution (Sigma-Aldrich, St. Louis, Mo., U.S.A.; catalog No, HT10132) and metastatic nodules on the surface of the lungs were counted. […]
This phenotype was maintained in the PDx model of NSG mouse. […] In this context, dose and period of administration of PAN-622 or SNS622-MC-DM1 for treatment of NSG mice was reduced to 1.9 mg/kg and the development and growth of metastatic nodules in the lungs after the treatment was assessed After 6 weeks of administration, the number of macroscopic metastatic nodules on the lung surface was determined.

[3] = system: normal human lung fibroblasts (NHLF); assay: Cell morphology by phase contrast microscope, NHLF; assay type: cell-based; settings: 32 nM, 72 hours
Method: as §1

SNS622-MC-DM1: SNS622 anti-HAAH monoclonal antibody conjugated to mertansine (DM1) by the non-cleavable linker maleimidocaproyl (MC)
Percent binding (H460 lysate; percent of loading amount bound): 107% | Binding amount (H460 lysate; sonicated H460 (2E^6 cells/ml), loading 5.0 or 0.5 μg/ml): 5.35 µg/mL | Increase in LDH release [1]: did not result in a detectable increase in LDH release | Mean number of nodules per animal [2]: 3.25 | Total number of metastatic nodules in group [2]: approximately 35 | Cell density (morphology) [3]: no significant reduction of cell density
